Laboratory results reported in the PETadex activity labels (doi:10.1016/s0021-9258(19)85305-x).

B1: unnamed (protein)
chain: MRPPQCLLHTPSLASPLLLLLLWLLGGGVGAEGREDAELLVTVRGGRLRGIRLKTPGGPVSAFLGIPFAEPPMGPRRFLPPEPKQPWSGVVDATTFQSVCYQYVDTLYPGFEGTEMANPNRELSEDCLYLNVWTPYPRPTSPTPVLVWIYGGGFYSGASSLDVYDGRFLVQAERTVLVSMNYRVGAFGFLALPGSREAPGNVGLLDQRLALQWVQENVAAFGGDPTSVTLFGESAGAASVGMHLLSPPSRGLFHRAVLQSGAPNGPWATVGMGEARRRATQLAHLVGCPPGGTGGNDTELVACLRTRPAQVLVNHEWHVLPQESVFRFSFVPVVDGDFLSDTPEALINAGDFHGLQVLVGVVKDEGSYFLVYGAPGFSKDNESLISRAEFLAGVRVGVPQVSDLAAEAVVLHYTDWLHPEDPARLREALSDVVGDHNVVCPVAQLAGRLAAQGARVYAYVFEHRASTLSWPLWMGVPHGYEIEFIFGIPLDPSRNYTAEEKIFAQRLMRYWANFARTGDPNEPRDPKAPQWPPYTAGAQQYVSLDLRPLEVRRGLRAQACAFWNRFLPKLLSATDTLDEAERQWKAEFHRWSSYMVHWKNQFDHYSKQDRCSDL
B2: unnamed (protein)
chain: MRPPQCLLHTPSLASPLLLLLLWLLGGGVGAEGREDAELLVTVRGGRLRGIRLKTPGGPVSAFLGIPFAEPPMGPRRFLPPEPKQPWSGVVDATTFQSVCYQYVDTLYPGFEGTEMWNPNRELSEDCLYLNVWTPYPRPTSPTPVLVWIYGGGFYSGASSLDVYDGRFLVQAERTVLVSMNYRVGAFGFLALPGSREAPGNVGLLDQRLALQWVQENVAAFGGDPTSVTLFGESAGAASVGMHLLSPPSRGLFHRAVLQSGAPNGPWATVGMGEARRRATQLAHLVGCPPGGTGGNDTELVACLRTRPAQVLVNHEWHVLPQESVFRFSFVPVVDGDFLSDTPEALINAGDFHGLQVLVGVVKDEGSFFLVYGAPGFSKDNESLISRAEFLAGVRVGVPQVSDLAAEAVVLHYTDWLHPEDPARLREALSDVVGDHNVVCPVAQLAGRLAAQGARVYAYVFEHRASTLSWPLWMGVPHGYEIEFIFGIPLDPSRNYTAEEKIFAQRLMRYWANFARTGDPNEPRDPKAPQWPPYTAGAQQYVSLDLRPLEVRRGLRAQACAFWNRFLPKLLSATDTLDEAERQWKAEFHRWSSYMVHWKNQFDHYSKQDRCSDL
B3: unnamed (protein)
chain: MRPPQCLLHTPSLASPLLLLLLWLLGGGVGAEGREDAELLVTVRGGRLRGIRLKTPGGPVSAFLGIPFAEPPMGPRRFLPPEPKQPWSGVVDATTFQSVCYQYVDTLYPGFEGTEMWNPNRELSEDCLYLNVWTPYPRPTSPTPVLVWIYGGGFYSGASSLDVYDGRFLVQAERTVLVSMNYRVGAFGFLALPGSREAPGNVGLLDQRLALQWVQENVAAFGGDPTSVTLFGESAGAASVGMHLLSPPSRGLFHRAVLQSGAPNGPWATVGMGEARRRATQLAHLVGCPPGGTGGNDTELVACLRTRPAQVLVNHEAHVLPQESVFRFSFVPVVDGDFLSDTPEALINAGDFHGLQVLVGVVKDEGSYFLVYGAPGFSKDNESLISRAEFLAGVRVGVPQVSDLAAEAVVLHYTDWLHPEDPARLREALSDVVGDHNVVCPVAQLAGRLAAQGARVYAYVFEHRASTLSWPLWMGVPHGYEIEFIFGIPLDPSRNYTAEEKIFAQRLMRYWANFARTGDPNEPRDPKAPQWPPYTAGAQQYVSLDLRPLEVRRGLRAQACAFWNRFLPKLLSATDTLDEAERQWKAEFHRWSSYMVHWKNQFDHYSKQDRCSDL
B4: unnamed (protein)
chain: MRPPQCLLHTPSLASPLLLLLLWLLGGGVGAEGREDAELLVTVRGGRLRGIRLKTPGGPVSAFLGIPFAEPPMGPRRFLPPEPKQPWSGVVDATTFQSVCYQYVDTLYPGFEGTEMWNPNRELSEDCLYLNVWTPYPRPTSPTPVLVWIYGGGFYSGASSLDVYDGRFLVQAERTVLVSMNYRVGAFGFLALPGSREAPGNVGLLDQRLALQWVQENVAAFGGDPTSVTLFGESAGAASVGMHLLSPPSRGLFHRAVLQSGAPNGPWATVGMGEARRRATQLAHLVGCPPGGTGGNDTELVACLRTRPAQVLVNHEWHVLPQESVFRFSFVPVVDGDFLSDTPEALINAGDFHGLQVLVGVVKDEGSYALVYGAPGFSKDNESLISRAEFLAGVRVGVPQVSDLAAEAVVLHYTDWLHPEDPARLREALSDVVGDHNVVCPVAQLAGRLAAQGARVYAYVFEHRASTLSWPLWMGVPHGYEIEFIFGIPLDPSRNYTAEEKIFAQRLMRYWANFARTGDPNEPRDPKAPQWPPYTAGAQQYVSLDLRPLEVRRGLRAQACAFWNRFLPKLLSATDTLDEAERQWKAEFHRWSSYMVHWKNQFDHYSKQDRCSDL
B5: unnamed (protein)
chain: MRPPQCLLHTPSLASPLLLLLLWLLGGGVGAEGREDAELLVTVRGGRLRGIRLKTPGGPVSAFLGIPFAEPPMGPRRFLPPEPKQPWSGVVDATTFQSVCYQYVDTLYPGFEGTEMWNPNRELSEDCLYLNVWTPYPRPTSPTPVLVWIYGGGFYSGASSLDVYDGRFLVQAERTVLVSMNYRVGAFGFLALPGSREAPGNVGLLDQRLALQWVQENVAAFGGDPTSVTLFGESAGAASVGMHLLSPPSRGLFHRAVLQSGAPNGPWATVGMGEARRRATQLAHLVGCPPGGTGGNDTELVACLRTRPAQVLVNHEWHVLPQESVFRFSFVPVVDGDFLSDTPEALINAGDFHGLQVLVGVVKDEGSYFLVYGAPGFSKDNESLISRAEFLAGVRVGVPQVSDLAAEAVVLHYTDWLHPEDPARLREALSDVVGDHNVVCPVAQLAGRLAAQGARVYAYVFEHRASTLSWPLWMGVPHGYEIEFIFGIPLDPSRNYTAEEKIFAQRLMRYWANFARTGDPNEPRDPKAPQWPPYTAGAQQYVSLDLRPLEVRRGLRAQACAFWNRFLPKLLSATDTLDEAERQWKAEFHRWSSYMVHWKNQFDHYSKQDRCSDL

Substrate: p-NP-C2
Conditions: pH 8; 27 °C

Protein | Km [mM] | kcat [s⁻¹] | kcat/Km [M⁻¹ s⁻¹]
B1 | 3 | 3170 | 1.06e+06
B2 | 5.4 | 1600 | 296000
B3 | 4.6 | 2170 | 471000
B4 | 8.6 | 333 | 38800
B5 | 5.6 | 1830 | 327000
